The values below come from US20090215686A1 (published 2009).

Residue numbers refer to the chain shown, from its start. Names may count otherwise.

Data set [1] deals with T1, Met extracellular domain fragment (residues 25-567, sema domain and cysteine-rich domain) with C-terminal … (UniProt P08581 25-307; P08581 308-567).
T1 construct: also called 6his-Met; Met sema domain
In words: AlphaScreen competition of unlabeled ligand against biotin-NK1 binding to 6his-Met, 1 uM heparin. The protocol:
(§1) The binding of NK1 to Met was determined by AlphaScreen assays using a hexahistidine detection kit from Perkin-Elmer. The experiment was performed using 10 nM biotin-NK1 and 6his-Met in the presence of 5 μg/ml donor and acceptor beads in a buffer containing 50 mM MOPS, pH7.4, 50 mM NaF, 0.05 mM CHAPS, and 0.1 mg/ml bovine serum albumin. Competition experiments were performed with 0.01 to 2.5 μM untagged ligand in the presence of 1 μM heparin and IC₅₀ values for NK1-Met interaction were determined from a nonlinear least square fit of the data. All experiments were duplicated or triplicated with standard errors typically less than 10% of the measurements. The Met dimerization assays were prepared using 40 nM of 6his-Met in the presence of 5 μg/ml nickel chelate donor and acceptor beads (Perkin-Elmer). The effect of Met ligands and heparin on Met dimerization was determined using 1 μM untagged ligand and 1 μM heparin.
To determine the binding affinities of the various NK1s for Met, competition experiments were performed using unlabeled NK1 proteins (FIG. 1E). […] These quantitative measurements thus establish that the affinities of the NK1 fragments are 10-50 folds weaker than the full-length HGF.

Data set [2] deals with the molecule itself. In words: crystal structure of mouse NK1. Here is the method: Data were collected with a MAR 225 CCD detector at 5-ID (DND-CAT) of the Advance Photon Source (APS) located at Argonne National Laboratory. Crystals were flash frozen in liquid nitrogen after a quick wash in cryoprotectant solution containing 50 mM ammonium sulfate, 29% PEG 4000 or 1000 (w/w) (human or mouse NK1 respectively), 100 mM Tris-HCl pH 8.0, 0.5 or 0 mM βOG, 100 mM NaCl, and 15% ethylene glycol. Data was integrated and scaled with HKL2000 (Otwinowski and Minor, 1997). The human NK1 crystallized in space group P21, a=49.40 Å, b=51.81 Å, c=73.17 Å, and β=107.87°, and the mouse NK1 in P63 with a=b=86.49 Å, c=104.45 Å. The structure was solved by molecular replacement using the PDB coordinates 1NK1. Molecular replacement and model refinement were performed with CNS, where twin fraction was incorporated for the refinement for the mouse structure (Brunger et al., 1998). Manual model building was done with the program 0 (Jones et al., 1991).
To investigate the molecular mechanism by which NK1 induces Met dimerization, the crystal structure of mouse NK1 at a 2.4 Å resolution and a high resolution structure of human NK1 (1.8 Å) were determined for structural comparison.

The target in data set [3] is T1, Met extracellular domain fragment …. Briefly: cell-based or functional assay.
The target is the same in data set [4]. Briefly: AlphaScreen competition against biotin-NK1 binding to 6his-Met, 1 uM heparin. The protocol:
as §1
(§2) In contrast to the Met dimerization activity, the Met binding activity of these NK1 mutants was little affected.

Data set [5] has the same target. Briefly: SPR, MET567 amine-coupled to a CM5 chip, ligand in flow. An excerpt:
(§3) Briefly, a CM5 chip was coated with MET567 by amine coupling chemistry. Ligand was then flowed through the cell at various concentrations to allow calculation of the dissociation equilibrium (KD).
(§4) NK1 versions of the above mutants were expressed in the yeast P. pastoris and purified to homogeneity.

For data set [6] the target is unchanged. In words: AlphaScreen, biotinylated NK1 and histidine-tagged Met, with against without heparin. The protocol:
as §1
(§5) To determine the functional activity of the above purified proteins, the direct interactions of Met with the biotinylated NK1 were measured using AlphaScreen assays as illustrated in FIG. 1C. […] When NK1 interacts with Met, excitation of a laser beam at 680 nm causes the donor beads to emit single oxygen molecules to activate the fluorophores in the acceptor beads and a light signal is detected at 520-620 nm. […]

Data set [7] shares this target. In words: AlphaScreen, biotinylated NK1 on streptavidin donor beads and 6his-Met on nickel chelate acceptor beads, with heparin (sheet prints '+ 1 pM HEPARIN') [d]. The protocol: as §1, §5
Data set [8] has the same target. Briefly: SPR, MET567 amine-coupled to a CM5 chip, against wild type NK1.
Source text: as §3, §4

The target is the same in data set [9]. In words: AlphaScreen competition: unlabeled NK1 mutant against biotinylated NK1 binding to 6his-Met, with heparin [b]. The protocol:
as §1, §2

B1: mouse NK1 (ligand)
chain: YAEGQKKRRNTLHEFKKSAKTTLTKEDPLLKIKTKKVNSADECANRCIRNRGFTFTCKAFVFDKSRKRCYWYPFNSMSSGVKKGFGHEFDLYENKDYIRNCIIGKGGSYKGTVSITKSGIKCQPWNSMIPHEHSFLPSSYRGKDLQENYCRNPRGEEGGPWCFTSNPEVRYEVCDIPQCSEV
notes: also called mouse NK1 (E. coli)
Take B1: the IC50 in data set [1] was roughly 30 nM. The binding result in data set [2] is reported as “binds”. In addition, in data set [3], the “Met dimerization signal (AlphaScreen), 1 µM NK1 without heparin; fold label over the bar [b]” value was determined as 1 fold; the “Met dimerization signal (AlphaScreen, 6his-Met on donor and acceptor beads), 1 µM NK1 with heparin; fold label over the bar [b]” value amounted to 46 fold.

B2: human HGF NK1 (residues 28-209), expressed in E. coli (ligand)
chain: YAEGQRKRRNTIHEFKKSAKTTLIKIDPALKIKTKKVNTADQCANRCTRNKGLPFTCKAFVFDKARKQCLWFPFNSMSSGVKKEFGHEFDLYENKDYIRNCIIGKGRSYKGTVSITKSGIKCQPWSSMIPHEHSFLPSSYRGKDLQENYCRNPRGEEGGPWCFTSNPEVRYEVCDIPQCSEV
notes: Expressed as a 6xHis-thioredoxin fusion; also called human NK1; wild type NK1
B2: in [1], the IC50 is roughly 100 nM; the “fold weaker affinity than mouse NK1 and the human R134G mutant” value was 3 fold. This molecule showed an IC50 in data set [4] of 49 nM. Moreover, in data set [3], the “Met dimerization signal (AlphaScreen), 1 µM NK1 without heparin; fold label over the bar [b]” value is 1 fold; the “Met dimerization signal (AlphaScreen, 6his-Met on donor and acceptor beads), 1 µM NK1 with heparin; fold label over the bar [b]” value worked out at 84 fold.

B3: wild type NK1 expressed in P. pastoris (Example 7) (ligand)
chain: B2 chain
notes: Lietha 2001
For B3, the Kd in data set [5] is 183 nM.

B4: biotinylated human NK1 (ligand)
chain: B2 chain
modifications: biotin on the N-terminal biotin acceptor peptide (coexpressed BirA)
notes: Made from the His6-thioredoxin-NK1 vector, digested with thrombin, purified on monomeric avidin; also called biotin-NK1; biotinylated NK1; not shown: 20 amino acid biotin acceptor peptide from the pDW464 plasmid (Duffy et al., 1998)
Regarding B4, the “fold increase of the NK1-Met binding signal on addition of heparin” value in data set [6] is greater than 200 fold. For the same molecule, the “fold label beside the bar of NK1+MET with heparin (NK1-MET binding signal)” value in data set [7] turned out to be 265 fold.

B5: human NK1 mutant R134G (ligand)
chain: B2 chain with R107G
notes: Positions count on wild type NK1; also called human R134G mutant; human R134G NK1
Regarding B5, in data set [1], the IC50 was roughly 30 nM. For the same molecule, in data set [3], the “Met dimerization signal (AlphaScreen), 1 µM NK1 without heparin; fold label over the bar [b]” value was 1 fold; the “Met dimerization signal (AlphaScreen, 6his-Met on donor and acceptor beads), 1 µM NK1 with heparin; fold label over the bar [b]” value was found to be 68 fold.

B6: NK1 double mutant LF (D123A:Y124A), P. pastoris (ligand)
chain: B2 chain with D96A, Y97A
For the molecule B6, the “fold reduced MET binding affinity” value in data set [8] was greater than 100 fold.

B7: NK1 K1 mutant K1D (V140A:I142A), P. pastoris (ligand)
chain: B2 chain with V113A, I115A
B7 gave a Kd in data set [5] of 160 nM.

B8: human NK1 mutant K85A/N127A in the R134G background (ligand)
chain: B2 chain with K58A, N100A, R107G
notes: made in the R134G background
For B8, the IC50 in data set [9] is 97 nM.

B9: NK1 linker mutant LE (N127A), P. pastoris (ligand)
chain: B2 chain with N100A
B9 yielded a Kd in data set [5] of 83 nM.

B10: human NK1 mutant K85A/D123A in the R134G background (ligand)
chain: B2 chain with K58A, D96A, R107G
notes: made in the R134G background
As for B10, the IC50 in [9] came to 75 nM.

B11: human NK1 mutant Y124A in the R134G background (ligand)
chain: B2 chain with Y97A, R107G
notes: also called Y124A NK1; Y124A mutant
In data set [4], B11 registered an IC50 of 39 nM.

B12: NK1 linker mutant LC (Y124A), P. pastoris (ligand)
chain: B2 chain with Y97A
B12 had an equilibrium dissociation constant (Kd) in data set [5] of 149 nM.

B13: NK1 double mutant LG (D123A:N127A), P. pastoris (ligand)
chain: B2 chain with D96A, N100A
On to B13, for which the “fold reduced MET binding affinity” value in [8] was greater than 100 fold.

B14: human NK1 mutant K85A in the R134G background (ligand)
chain: B2 chain with K58A, R107G
notes: also called K85A NK1
Turning to B14, the IC50 in data set [4] was determined as 32 nM.
